Data taken from paper PMC8093152, “Biosynthesis of the Tricyclic Aromatic Type II Polyketide Rishirilide: New Potential Third Ring Oxygenation after Three Cyclization Steps” (Molecular Biotechnology, 2021).

B1: RslO4 monooxygenase, C-terminal His-tag recombinant protein (enzyme, Streptomyces bottropensis Gö C4/4)
chain: MAVVFVNKLTLIGDAEEFESRYEAVGAFMETQPGLVRYSLVRSTKDDSVYFNIAEWDDEDTFRKALAEPEFRRRLDALTGLIKGEPHLSLPVRQGRAAQV
notes: RslO4, monooxygenase of the rishirilide (Rsl) gene cluster of Streptomyces bottropensis Gö C4/4; gene amplified from cosmid 4 and cloned between NdeI and XhoI of pET21a(+); rslO4 gene printed as 300 bps; predicted mass of the tagged protein 12.17 kDa; also called monooxygenase RslO4; cofactor-independent monooxygenase RslO4; source: E. coli BL21 (DE3) Star, pET21a(+), purified (Ni-NTA HisTrap FF, …)
B2: RslO1 monooxygenase, C-terminal His-tag recombinant protein (enzyme, Streptomyces bottropensis Gö C4/4)
chain: MKFGINLFPTVGPAEKSAGQHFEESLRLAELADELGFHHVKTVEHYFHEYGGYSPDPVTFLAAAAARTRRVRLVTGAVLPVFTHPLKLAGKLAMLDNISQGRLDVGFGRAFLPDEFTAFEISMDESRARFDEGVEAVRRLWAEEDVVWEGTFHRFGPVTMLPRTWQRPHPRILVATAKTPASAEAAARAGHGVMLVPSINPREQVQKTLSLYRDAASAAGFKPTEEDIHMSYNCYLAEDGQEARQKGGQASERANRALASAVSAWRETRSADYPGYEKIVEKAGRGDFDRAVAERKALVGTPDEVRAAIDDIRGWFGDFTISLQVISGAMPFEESARTMRLFAEHLLPHYAAND
notes: RslO1, FMN-dependent luciferase-like monooxygenase of the rishirilide (Rsl) gene cluster of Streptomyces bottropensis Gö C4/4; gene amplified from cosmid 4 and cloned between NdeI and XhoI of pET21a(+); predicted mass of the tagged protein 40.04 kDa; also called monooxygenase RslO1; FMN-dependent luciferase-like monooxygenase RslO1; source: E. coli BL21 (DE3) Star, pET21a(+), purified (Ni-NTA …)

Experiments:
[1] = target: the molecule itself; test: crystal structure; apo RslO4, sitting drop vapor diffusion at 20 °C, 6% ethanol, 0.1 M ammonium acetate pH 5.5, 1.5 M phosphate pH 7.0; space group P3(2)21, two monomers in the asymmetric unit; 1.8 Å
[2] = target: the molecule itself; test: crystal structure; apo RslO1, sitting drop vapor diffusion at 20 °C, 0.1 M HEPES pH 7.5, 36% polyethylene glycol 600 (seeded); space group P2(1)2(1)2(1); 1.60 Å

Protein	stoichiometry N [1]	stoichiometry N [2]
B1	2	–
B2	–	2
